The values that follow come from the supplement of paper PMC7877785.

± gives the uncertainty stated by the source.

The data set can be described thus: self-splicing fitness, log relative to wild type (ln ratio); higher = more splicing; Tetrahymena group I intron in knt gene, E. coli kanamycin selection, DiMSum; sequences stand for … in CUCUCU…GGAGGGAAAAGUUAUCAGGCAUGCACCUGGUAGCUAGUCUUUAAACCAAUAGAUUGCAUCGGUUUAAAAGGCAAGACCGUCAAAUUGCGGGAAAGGGGUCAACAGCCGUUCAGUACCAAGUCUCAGGGGAAACUUUGAGAUGGCCUUGCAAAGGGUAUGGUAAUAAGCUGACGGACAUGGUCCUAACCACGCAGCCAAGUCCUAAGUCAACAGAUCUUCUGUUGAUAUGGAUGCAGUUCACAGACUAAAUGUCGGUCGGGGAAGAUGUAUUCUUCUCAUAAGAUAUAGUCGGACCUCUCCUUAAUGGGAGCUAGCGGAUGAAGUGAUGCAACACUGGAGCCGCUGGGAACUAAUUUGUAUGCGAAAGUAUAUUGAUUAGUUUUGGAGUACUCGUGGUCG
A digest of the protocol:
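The eight P1ex-region nucleotides of an intron in the knt kanamycin-resistance gene on pET-22b(+) were all randomised and the library put into E. coli BL21(DE3). Six replicate transformations were grown overnight at 37°C or 30°C on LB agar with or without 25 μg/mL kanamycin, together with 100 μg/mL carbenicillin, 50 μM IPTG and 0.2% rhamnose. Colonies were pooled and amplicon-sequenced on an Illumina HiSeq 2500. Fitness from DiMSum is the error-weighted combination of wild-type-normalised replicate fold changes, kanamycin over none.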

For GCACAGCAAUAUUACGUAAU, the “self-splicing fitness (ln)” value by setting is: (30 °C) 0.164 ± 0.059; (37 °C) -0.0143 ± 0.064.

For GUAUAGCAAUAUUACGGGAU, the “self-splicing fitness (ln)” value is -3.5 ± 0.29 (30 °C) and -0.308 ± 0.11 (37 °C). In the case of CUAUAGCAAUAUUACGAUGC, the “self-splicing fitness (ln)” value was -4.97 ± 0.38 (30 °C) and -2.41 ± 0.2 (37 °C).

GCAUAGCAAUAUUACGCGAA: the “self-splicing fitness (ln)” value reads like this: (30 °C) -2.13 ± 0.1; (37 °C) -1.62 ± 0.12. Take GGACAGCAAUAUUACGCGCG: the “self-splicing fitness (ln)” value was 0.181 ± 0.094 (30 °C) and -0.742 ± 0.11 (37 °C). Turning to GCACAGCAAUAUUACGUUAG, the “self-splicing fitness (ln)” value reads like this: (30 °C) -2.6 ± 0.091; (37 °C) -1.85 ± 0.11. UAUCAGCAAUAUUACGUCUA: the “self-splicing fitness (ln)” value is, setting by setting: (30 °C) -0.033 ± 0.078; (37 °C) 0.747 ± 0.1. Regarding ACGAAGCAAUAUUACGCGUG, the “self-splicing fitness (ln)” value is, setting by setting: (30 °C) -1.13 ± 0.051; (37 °C) -0.442 ± 0.074. In the same order, the values of AUUAAGCAAUAUUACGACCG are -1.51 ± 0.1 and -0.619 ± 0.16. The matching figures for UCAGAGCAAUAUUACGCUUG: -2.27 ± 0.14 and -0.868 ± 0.12. The matching figures for GAUCAGCAAUAUUACGUCAA: -1.01 ± 0.1 and -0.615 ± 0.14. In the case of UUACAGCAAUAUUACGGUCU, the “self-splicing fitness (ln)” value reads like this: (30 °C) -0.96 ± 0.075; (37 °C) -0.357 ± 0.088. GACCAGCAAUAUUACGGUUG: the “self-splicing fitness (ln)” value runs as follows: (30 °C) -0.661 ± 0.053; (37 °C) -0.341 ± 0.062. With AUCAAGCAAUAUUACGUGUG, the “self-splicing fitness (ln)” value by setting is: (30 °C) -1.57 ± 0.069; (37 °C) -1.32 ± 0.071.

Consider ACGCAGCAAUAUUACGAACC, for which the “self-splicing fitness (ln)” value was -1.99 ± 0.16 (30 °C) and -0.986 ± 0.26 (37 °C). In the same order, the values of GGUAAGCAAUAUUACGCGCC are -2.99 ± 0.33 and -1.48 ± 0.29. For the sequence CGGCAGCAAUAUUACGACCG, where the note is “30 °C”, the “self-splicing fitness (ln)” value was -3.76 ± 0.31. As to UAUGAGCAAUAUUACGUUUA, the “self-splicing fitness (ln)” value (30 °C) was -2.59 ± 0.24 and the “self-splicing fitness (ln)” value (37 °C) was -1.94 ± 0.14. In the case of UUAUAGCAAUAUUACGGGGG, the “self-splicing fitness (ln)” value (30 °C) was -3.15 ± 0.4.

As to CGUCAGCAAUAUUACGCUUG, the “self-splicing fitness (ln)” value reads like this: (30 °C) -1.03 ± 0.098; (37 °C) 0.41 ± 0.12. On to GGCUAGCAAUAUUACGUGCA, for which the “self-splicing fitness (ln)” value by setting is: (30 °C) 0.326 ± 0.14; (37 °C) 0.0604 ± 0.18.

As to GCAUAGCAAUAUUACGCGAU, the “self-splicing fitness (ln)” value was -3.36 ± 0.16 (30 °C) and -1.93 ± 0.14 (37 °C). In the same order, the values of UGGUAGCAAUAUUACGCGAU are -2.54 ± 0.28 and -0.974 ± 0.26. The matching figures for GCCGAGCAAUAUUACGCGAG: -3.29 ± 0.32 and -2.03 ± 0.32. In the same order, the values of AGGCAGCAAUAUUACGACCA are -0.404 ± 0.11 and 0.544 ± 0.17. With GGGUAGCAAUAUUACGAACU, the “self-splicing fitness (ln)” value is -0.832 ± 0.27 (30 °C) and -0.534 ± 0.19 (37 °C).

For UCUGAGCAAUAUUACGGACG, the “self-splicing fitness (ln)” value (30 °C) is -1.17 ± 0.35 and the “self-splicing fitness (ln)” value (37 °C) was -2.21 ± 0.45. Consider GAUAAGCAAUAUUACGUUGU, for which the “self-splicing fitness (ln)” value is -2.12 ± 0.089 (30 °C) and -2.6 ± 0.11 (37 °C). In the case of AUGGAGCAAUAUUACGCUCA, the “self-splicing fitness (ln)” value (30 °C) is -1.46 ± 0.17 and the “self-splicing fitness (ln)” value (37 °C) was -1.17 ± 0.18. Regarding CUGUAGCAAUAUUACGUGCG, the “self-splicing fitness (ln)” value runs as follows: (30 °C) -1.38 ± 0.08; (37 °C) -0.547 ± 0.092. For the sequence AACUAGCAAUAUUACGCUGA, the “self-splicing fitness (ln)” value reads like this: (30 °C) -2.18 ± 0.14; (37 °C) -1.91 ± 0.13. In the same order, the values of UAGAAGCAAUAUUACGCGAA are -1.61 ± 0.18 and -0.748 ± 0.17.

On to UACUAGCAAUAUUACGCACG, for which the “self-splicing fitness (ln)” value is, setting by setting: (30 °C) -0.877 ± 0.089; (37 °C) -0.992 ± 0.11. For UCUAAGCAAUAUUACGGCAG, the “self-splicing fitness (ln)” value runs as follows: (30 °C) -1.35 ± 0.13; (37 °C) -0.508 ± 0.14. In the same order, the values of AUGCAGCAAUAUUACGGGAG are -3.13 ± 0.17 and -2.11 ± 0.13. In the same order, the values of GUCAAGCAAUAUUACGUGUG are -2.69 ± 0.068 and -1.61 ± 0.071. On to UGGAAGCAAUAUUACGAUUC, for which the “self-splicing fitness (ln)” value (30 °C) was -3.18 ± 0.3. Regarding AGGUAGCAAUAUUACGAGUG, the “self-splicing fitness (ln)” value (30 °C) is -2.867 ± 0.019 and the “self-splicing fitness (ln)” value (37 °C) was -1.58 ± 0.034.
